According to US20240287161A1 (NATIONAL UNIVERSITY CORPORATION TOTTORI UNIVERSITY, published 2024):

Key:
[1] = target: T1, HCoV-NL63 trimeric S protein (amino acids 22-1293) with T4 foldon, histidine tag and strep-tag (HCoV-NL63, UniProt Q6Q1S2 23-1293); experiment: ELISA on coated S-trimeric antigen, anti-human IgG-HRP [Human IgG3, NT-193]
T1 sequence: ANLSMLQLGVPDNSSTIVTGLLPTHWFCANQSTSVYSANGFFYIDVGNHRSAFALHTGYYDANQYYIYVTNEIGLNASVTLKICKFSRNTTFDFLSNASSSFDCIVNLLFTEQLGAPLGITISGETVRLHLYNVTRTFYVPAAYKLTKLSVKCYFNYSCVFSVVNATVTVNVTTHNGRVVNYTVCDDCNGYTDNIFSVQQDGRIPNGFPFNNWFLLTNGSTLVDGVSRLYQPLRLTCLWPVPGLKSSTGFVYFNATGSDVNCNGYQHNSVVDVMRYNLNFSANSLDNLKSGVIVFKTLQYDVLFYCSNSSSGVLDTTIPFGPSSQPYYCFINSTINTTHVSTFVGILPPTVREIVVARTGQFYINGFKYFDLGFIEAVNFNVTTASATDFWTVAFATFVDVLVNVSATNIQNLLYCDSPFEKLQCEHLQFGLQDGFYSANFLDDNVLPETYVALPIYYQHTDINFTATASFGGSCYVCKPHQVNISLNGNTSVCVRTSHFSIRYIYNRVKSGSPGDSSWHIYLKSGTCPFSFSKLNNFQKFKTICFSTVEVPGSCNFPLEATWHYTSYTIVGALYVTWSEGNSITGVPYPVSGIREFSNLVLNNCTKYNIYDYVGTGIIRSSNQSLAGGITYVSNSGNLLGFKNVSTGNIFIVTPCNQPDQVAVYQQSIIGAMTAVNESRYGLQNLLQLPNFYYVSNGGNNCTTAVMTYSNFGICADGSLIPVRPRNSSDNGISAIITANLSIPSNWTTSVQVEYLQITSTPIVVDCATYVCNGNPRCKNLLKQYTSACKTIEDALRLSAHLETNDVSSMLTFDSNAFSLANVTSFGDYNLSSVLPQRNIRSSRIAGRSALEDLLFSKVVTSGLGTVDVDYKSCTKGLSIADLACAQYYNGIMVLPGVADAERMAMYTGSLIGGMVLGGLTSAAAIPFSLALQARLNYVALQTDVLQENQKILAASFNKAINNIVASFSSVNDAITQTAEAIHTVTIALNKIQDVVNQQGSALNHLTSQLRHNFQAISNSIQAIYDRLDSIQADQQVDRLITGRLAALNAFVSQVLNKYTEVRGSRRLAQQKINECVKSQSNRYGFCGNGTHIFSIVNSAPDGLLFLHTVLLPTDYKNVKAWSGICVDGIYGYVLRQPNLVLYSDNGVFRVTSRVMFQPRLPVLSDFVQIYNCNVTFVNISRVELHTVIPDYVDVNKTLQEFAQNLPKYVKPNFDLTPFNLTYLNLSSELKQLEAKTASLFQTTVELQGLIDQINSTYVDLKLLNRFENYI

[2] = target: T2, HCoV-OC43 trimeric S protein (amino acids 12-1299) with T4 foldon, histidine tag and strep-tag (HCoV-OC43, UniProt P36334 12-1291); experiment: as above
T2 chain: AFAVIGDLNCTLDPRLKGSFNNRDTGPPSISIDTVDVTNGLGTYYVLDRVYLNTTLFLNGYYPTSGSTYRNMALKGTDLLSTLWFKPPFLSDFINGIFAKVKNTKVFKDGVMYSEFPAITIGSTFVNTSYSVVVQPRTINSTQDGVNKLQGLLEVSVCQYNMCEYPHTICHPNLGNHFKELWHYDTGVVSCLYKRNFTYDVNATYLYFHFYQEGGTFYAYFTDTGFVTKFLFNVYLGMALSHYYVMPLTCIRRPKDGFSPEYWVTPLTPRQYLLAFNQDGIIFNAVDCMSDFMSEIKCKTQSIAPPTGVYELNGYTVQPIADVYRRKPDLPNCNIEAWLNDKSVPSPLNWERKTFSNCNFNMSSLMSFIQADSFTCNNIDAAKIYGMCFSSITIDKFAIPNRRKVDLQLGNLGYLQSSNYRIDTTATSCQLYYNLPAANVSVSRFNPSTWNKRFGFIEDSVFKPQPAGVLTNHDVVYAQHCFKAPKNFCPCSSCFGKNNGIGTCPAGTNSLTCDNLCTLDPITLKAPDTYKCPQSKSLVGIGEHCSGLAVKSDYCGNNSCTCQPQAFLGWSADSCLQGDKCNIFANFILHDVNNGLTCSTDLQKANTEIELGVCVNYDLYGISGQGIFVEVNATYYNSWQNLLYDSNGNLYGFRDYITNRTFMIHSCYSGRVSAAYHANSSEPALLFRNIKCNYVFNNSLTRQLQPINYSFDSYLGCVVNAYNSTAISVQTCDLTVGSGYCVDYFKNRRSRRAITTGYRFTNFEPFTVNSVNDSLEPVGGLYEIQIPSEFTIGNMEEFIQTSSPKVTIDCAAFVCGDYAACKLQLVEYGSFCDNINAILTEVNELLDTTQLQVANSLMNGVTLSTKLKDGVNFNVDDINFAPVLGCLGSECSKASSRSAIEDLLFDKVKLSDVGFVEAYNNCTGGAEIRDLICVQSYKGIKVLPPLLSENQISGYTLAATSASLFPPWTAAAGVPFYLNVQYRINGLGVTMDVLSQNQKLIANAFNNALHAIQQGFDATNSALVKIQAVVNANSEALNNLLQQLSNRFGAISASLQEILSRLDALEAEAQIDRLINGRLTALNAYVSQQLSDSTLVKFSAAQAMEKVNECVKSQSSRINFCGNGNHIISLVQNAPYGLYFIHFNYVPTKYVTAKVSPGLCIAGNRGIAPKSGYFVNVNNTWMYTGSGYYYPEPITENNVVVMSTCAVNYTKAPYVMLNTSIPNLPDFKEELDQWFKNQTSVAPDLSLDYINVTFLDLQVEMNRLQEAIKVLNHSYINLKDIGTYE

B1: NT-193, human IgG3 subclass (antibody, V domains shown)
VH: EVQLQQWGAGLLKPSETLSLTCAVYGGSFSGYYWSWIRQPPGKGLEWIGEINHSGSTNYNPSLKSRVTISVDTSKNQFSLKLSSVTAADTAVYYCARGWDLDYYYGMDVWGQGTTVTVSS
VL: DIRMTQSPSAMSASVGDRVTVTCRASQGIGNYLAWFQLKPGKVPKRLIYAASSLQSGVPARFSGGGSGTEFTLTISSLQPEDFATYYCLQHGFLPWTFGQGTKLEIK
[1]
  binding result: no binding (tested: 1000 ng/ml)
[2]
  binding result: no binding (tested: 1000 ng/ml)
